# Test results taken from article PMC11574045, “A cofactor-induced repressive type of transcription factor condensation can be induced by synthetic peptides to suppress tumorigenesis” (The EMBO Journal, 2024).
# B1: ZNF19 (protein, UniProt P17023 1-458, looked up)
# Zinc finger protein 19: MAAMPLKAQYQEMVTFEDVAVHFTKTEWTGLSPAQRALYRSVMLENFGNLTALGYPVPKPALISLLERGDMAWGLEAQDDPPAERTKNVCKDVETNIDSESTLIQGISEERDGMMSHGQLKSVPQRTDFPETRNVEKHQDIPTVKNIQGKVPRIPCARKPFICEECGKSFSYFSYYARHQRIHTGEKPFECSECGKAFNGNSSLIRHQRIHTGERPYQCEECGRAFNDNANLIRHQRIHSGDRPYYCTECGNSFTSSSEFVIHQRIHTGEKPYECNECGKAFVGNSPLLRHQKIHTGEKPYECNECGKSFGRTSHLSQHQRIHTGEKPYSCKVCGQAFNFHTKLTRHQRIHSEEKPFDCVDCGKAFSAQEQLKRHLRIHTQESSYVCDECGKALTSKRNLHQHQRIHTGEKPYECSKYEKAFGTSSQLGHLEHVYSGEKPVLDICRFGLPEFFTPFYW
# B2: ZNF41 (protein, UniProt P51814 1-821, looked up)
# Zinc finger protein 41: MAANGDSPPWSPALAAEGRGSSCEVRRERTPEARIHSVKRYPDLSPGPKGRSSADHAALNSIVSLQASVSFEDVTVDFSKEEWQHLDPAQRRLYWDVTLENYSHLLSVGYQIPKSEAAFKLEQGEGPWMLEGEAPHQSCSGEAIGKMQQQGIPGGIFFHCERFDQPIGEDSLCSILEELWQDNDQLEQRQENQNNLLSHVKVLIKERGYEHKNIEKIIHVTTKLVPSIKRLHNCDTILKHTLNSHNHNRNSATKNLGKIFGNGNNFPHSPSSTKNENAKTGANSCEHDHYEKHLSHKQAPTHHQKIHPEEKLYVCTECVMGFTQKSHLFEHQRIHAGEKSRECDKSNKVFPQKPQVDVHPSVYTGEKPYLCTQCGKVFTLKSNLITHQKIHTGQKPYKCSECGKAFFQRSDLFRHLRIHTGEKPYECSECGKGFSQNSDLSIHQKTHTGEKHYECNECGKAFTRKSALRMHQRIHTGEKPYVCADCGKAFIQKSHFNTHQRIHTGEKPYECSDCGKSFTKKSQLHVHQRIHTGEKPYICTECGKVFTHRTNLTTHQKTHTGEKPYMCAECGKAFTDQSNLIKHQKTHTGEKPYKCNGCGKAFIWKSRLKIHQKSHIGERHYECKDCGKAFIQKSTLSVHQRIHTGEKPYVCPECGKAFIQKSHFIAHHRIHTGEKPYECSDCGKCFTKKSQLRVHQKIHTGEKPNICAECGKAFTDRSNLITHQKIHTREKPYECGDCGKTFTWKSRLNIHQKSHTGERHYECSKCGKAFIQKATLSMHQIIHTGKKPYACTECQKAFTDRSNLIKHQKMHSGEKRYKASD
# B3: ZNF250 (protein, UniProt P15622 1-560, looked up)
# Zinc finger protein 250: MAAARLLPVPAGPQPLSFQAKLTFEDVAVLLSQDEWDRLCPAQRGLYRNVMMETYGNVVSLGLPGSKPDIISQLERGEDPWVLDRKGAKKSQGLWSDYSDNLKYDHTTACTQQDSLSCPWECETKGESQNTDLSPKPLISEQTVILGKTPLGRIDQENNETKQSFCLSPNSVDHREVQVLSQSMPLTPHQAVPSGERPYMCVECGKCFGRSSHLLQHQRIHTGEKPYVCSVCGKAFSQSSVLSKHRRIHTGEKPYECNECGKAFRVSSDLAQHHKIHTGEKPHECLECRKAFTQLSHLIQHQRIHTGERPYVCPLCGKAFNHSTVLRSHQRVHTGEKPHRCNECGKTFSVKRTLLQHQRIHTGEKPYTCSECGKAFSDRSVLIQHHNVHTGEKPYECSECGKTFSHRSTLMNHERIHTEEKPYACYECGKAFVQHSHLIQHQRVHTGEKPYVCGECGHAFSARRSLIQHERIHTGEKPFQCTECGKAFSLKATLIVHLRTHTGEKPYECNSCGKAFSQYSVLIQHQRIHTGEKPYECGECGRAFNQHGHLIQHQKVHRKL
# B4: ZNF484 (protein, UniProt Q5JVG2 1-852, looked up)
# Zinc finger protein 484: MTKSLESVSFKDVTVDFSRDEWQQLDLAQKSLYREVMLENYFNLISVGCQVPKPEVIFSLEQEEPCMLDGEIPSQSRPDGDIGFGPLQQRMSEEVSFQSEININLFTRDDPYSILEELWKDDEHTRKCGENQNKPLSRVVFINKKTLANDSIFEYKDIGEIVHVNTHLVSSRKRPHNCNSCGKNLEPIITLYNRNNATENSDKTIGDGDIFTHLNSHTEVTACECNQCGKPLHHKQALIQQQKIHTRESLYLFSDYVNVFSPKSHAFAHESICAEEKQHECHECEAVFTQKSQLDGSQRVYAGICTEYEKDFSLKSNRQKTPYEGNYYKCSDYGRAFIQKSDLFRCQRIHSGEKPYEYSECEKNLPQNSNLNIHKKIHTGGKHFECTECGKAFTRKSTLSMHQKIHTGEKPYVCTECGKAFIRKSHFITHERIHTGEKPYECSDCGKSFIKKSQLHVHQRIHTGENPFICSECGKVFTHKTNLIIHQKIHTGERPYICTVCGKAFTDRSNLIKHQKIHTGEKPYKCSDCGKSFTWKSRLRIHQKCHTGERHYECSECGKAFIQKSTLSMHQRIHRGEKPYVCTECGKAFFHKSHFITHERIHTGEKPYECSICGKSFTKKSQLHVHQQIHTGEKPYRCAECGKAFTDRSNLFTHQKIHTGEKPYKCSDCGKAFTRKSGLHIHQQSHTGERHYECSECGKAFARKSTLIMHQRIHTGEKPYICNECGKSFIQKSHLNRHRRIHTGEKPYECSDCGKSFIKKSQLHEHHRIHTGEKPYICAECGKAFTIRSNLIKHQKIHTKQKPYKCSDLGKALNWKPQLSMPQKSDNGEVECSMPQLWCGDSEGDQGQLSSI
# B5: ZNF213 (protein, UniProt O14771 1-459, looked up)
# Zinc finger protein 213: MAAPLEAQDQAPGEGEGLLIVKVEDSSWEQESAQHEDGRDSEACRQRFRQFCYGDVHGPHEAFSQLWELCCRWLRPELRTKEQILELLVLEQFLTVLPGEIQGWVREQHPGSGEEAVALVEDLQKQPVKAWRQDVPSEEAEPEAAGRGSQATGPPPTVGARRRPSVPQEQHSHSAQPPALLKEGRPGETTDTCFVSGVHGPVALGDIPFYFSREEWGTLDPAQRDLFWDIKRENSRNTTLGFGLKGQSEKSLLQEMVPVVPGQTGSDVTVSWSPEEAEAWESENRPRAALGPVVGARRGRPPTRRRQFRDLAAEKPHSCGQCGKRFRWGSDLARHQRTHTGEKPHKCPECDKSFRSSSDLVRHQGVHTGEKPFSCSECGKSFSRSAYLADHQRIHTGEKPFGCSDCGKSFSLRSYLLDHRRVHTGERPFGCGECDKSFKQRAHLIAHQSLHAKMAQPVG
# B6: CBX2 (protein, UniProt Q14781 1-532, looked up)
# Chromobox protein homolog 2: MEELSSVGEQVFAAECILSKRLRKGKLEYLVKWRGWSSKHNSWEPEENILDPRLLLAFQKKEHEKEVQNRKRGKRPRGRPRKLTAMSSCSRRSKLKEPDAPSKSKSSSSSSSSTSSSSSSDEEDDSDLDAKRGPRGRETHPVPQKKAQILVAKPELKDPIRKKRGRKPLPPEQKATRRPVSLAKVLKTARKDLGAPASKLPPPLSAPVAGLAALKAHAKEACGGPSAMATPENLASLMKGMASSPGRGGISWQSSIVHYMNRMTQSQAQAASRLALKAQATNKCGLGLDLKVRTQKGELGMSPPGSKIPKAPSGGAVEQKVGNTGGPPHTHGASRVPAGCPGPQPAPTQELSLQVLDLQSVKNGMPGVGLLARHATATKGVPATNPAPGKGTGSGLIGASGATMPTDTSKSEKLASRAVAPPTPASKRDCVKGSATPSGQESRTAPGEARKAATLPEMSAGEESSSSDSDPDSASPPSTGQNPSVSVQTSQDWKPTRSLIEHVFVTDVTANLITVTVKESPTSVGFFNLRHY
# B7: CCNC (protein, UniProt P24863 1-283, looked up)
# Cyclin-C: MAGNFWQSSHYLQWILDKQDLLKERQKDLKFLSEEEYWKLQIFFTNVIQALGEHLKLRQQVIATATVYFKRFYARYSLKSIDPVLMAPTCVFLASKVEEFGVVSNTRLIAAATSVLKTRFSYAFPKEFPYRMNHILECEFYLLELMDCCLIVYHPYRPLLQYVQDMGQEDMLLPLAWRIVNDTYRTDLCLLYPPFMIALACLHVACVVQQKDARQWFAELSVDMEKILEIIRVILKLYEQWKNFDERKEMATILSKMPKPKPPPNSEGEQGPNGSQNSSYSQS
# B8: ZNF473 (protein, UniProt Q8WTR7 1-871, looked up)
# Zinc finger protein 473: MAEEFVTLKDVGMDFTLGDWEQLGLEQGDTFWDTALDNCQDLFLLDPPRPNLTSHPDGSEDLEPLAGGSPEATSPDVTETKNSPLMEDFFEEGFSQEIIEMLSKDGFWNSNFGEACIEDTWLDSLLGDPESLLRSDIATNGESPTECKSHELKRGLSPVSTVSTGEDSMVHNVSEKTLTPAKSKEYRGEFFSYSDHSQQDSVQEGEKPYQCSECGKSFSGSYRLTQHWITHTREKPTVHQECEQGFDRNASLSVYPKTHTGYKFYVCNEYGTTFSQSTYLWHQKTHTGEKPCKSQDSDHPPSHDTQPGEHQKTHTDSKSYNCNECGKAFTRIFHLTRHQKIHTRKRYECSKCQATFNLRKHLIQHQKTHAAKTTSECQECGKIFRHSSLLIEHQALHAGEEPYKCNERGKSFRHNSTLKIHQRVHSGEKPYKCSECGKAFHRHTHLNEHRRIHTGYRPHKCQECVRSFSRPSHLMRHQAIHTAEKPYSCAECKETFSDNNRLVQHQKMHTVKTPYECQECGERFICGSTLKCHESVHAREKQGFFVSGKILDQNPEQKEKCFKCNKCEKTFSCSKYLTQHERIHTRGVKPFECDQCGKAFGQSTRLIHHQRIHSRVRLYKWGEQGKAISSASLIKLQSFHTKEHPFKCNECGKTFSHSAHLSKHQLIHAGENPFKCSKCDRVFTQRNYLVQHERTHARKKPLVCNECGKTFRQSSCLSKHQRIHSGEKPYVCDYCGKAFGLSAELVRHQRIHTGEKPYVCQECGKAFTQSSCLSIHRRVHTGEKPYRCGECGKAFAQKANLTQHQRIHTGEKPYSCNVCGKAFVLSAHLNQHLRVHTQETLYQCQRCQKAFRCHSSLSRHQRVHNKQQYCL
# B9: ZNF483 (protein, UniProt Q8TF39 1-744, looked up)
# Zinc finger protein 483: MQAVVPLNKMTAISPEPQTLASTEQNEVPRVVTSGEQEAILRGNAADAESFRQRFRWFCYSEVAGPRKALSQLWELCNQWLRPDIHTKEQILELLVFEQFLTILPGEIRIWVKSQHPESSEEVVTLIEDLTQMLEEKDPVSQDSTVSQEENSKEDKMVTVCPNTESCESITLKDVAVNFSRGEWKKLEPFQKELYKEVLLENLRNLEFLDFPVSKLELISQLKWVELPWLLEEVSKSSRLDESALDKIIERCLRDDDHGLMEESQQYCGSSEEDHGNQGNSKGRVAQNKTLGSGSRGKKFDPDKSPFGHNFKETSDLIKHLRVYLRKKSRRYNESKKPFSFHSDLVLNRKEKTAGEKSRKSNDGGKVLSHSSALTEHQKRQKIHLGDRSQKCSKCGIIFIRRSTLSRRKTPMCEKCRKDSCQEAALNKDEGNESGEKTHKCSKCGKAFGYSASLTKHRRIHTGEKPYMCNECGKAFSDSSSLTPHHRTHSGEKPFKCDDCGKGFTLSAHLIKHQRIHTGEKPYKCKDCGRPFSDSSSLIQHQRIHTGEKPYTCSNCGKSFSHSSSLSKHQRIHTGEKPYKCGECGKAFRQNSCLTRHQRIHTGEKPYLCNDCGMTFSHFTSVIYHQRLHSGEKPYKCNQCEKAFPTHSLLSRHQRIHTGVKPYKCKECGKSFSQSSSLNEHHRIHTGEKPYECNYCGATFSRSSILVEHLKIHTGRREYECNECEKTFKSNSGLIRHRGFHSAE
# Test system: HEK293FT cells transfected with TF library
# Experiment: Screening of TF condensates based on fluorescent puncta
# Assay type: cell-based
# Settings: Figure 1B numerical data; TF library screen, one value per transcriptional factor
# Outline: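 Cells were seeded onto plasmid/PEI-loaded wells (plasmid 1.6 μg/ml final) and grown 60 h. Medium with or without glucose followed for 12 h. Fixed, permeabilized cells were stained against Flag or GAL4 tags, and condensate puncta were quantified from 50 random fields per well.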
molecule,measurement,value
B1,Z score of condensed fraction,-0.9415
B2,Z score of condensed fraction,-0.7537
B3,Z score of condensed fraction,-1.178
B4,Z score of condensed fraction,-0.5495
B5,Z score of condensed fraction,-0.4697
B6,Z score of condensed fraction,1.201
B7,Z score of condensed fraction,-0.5132
B8,Z score of condensed fraction,-0.9289
B9,Z score of condensed fraction,2.279
